From article PMC4960544, “Production of full-length soluble Plasmodium falciparum RH5 protein vaccine using a Drosophila melanogaster Schneider 2 stable cell line system” (Scientific Reports, 2016)

Tests used:
[1] = molecular target: basigin (Homo sapiens) (UniProt P35613); assay: SPR; conditions: cited from earlier work
[2] = rabbit serum anti-PfRH5 v2.0 IgG ELISA; conditions: glycan lost; control: v5.0 (native sequons, glycosylated)
[3] = single-cycle GIA with purified rabbit total IgG; conditions: glycan lost; control: v5.0 (native sequons, glycosylated)
[4] = GIA versus anti-PfRH5 IgG concentration, fitted curves; conditions: glycan lost; control: v5.0 (native sequons, glycosylated)

basigin (Homo sapiens), sequence (P35613 22-325): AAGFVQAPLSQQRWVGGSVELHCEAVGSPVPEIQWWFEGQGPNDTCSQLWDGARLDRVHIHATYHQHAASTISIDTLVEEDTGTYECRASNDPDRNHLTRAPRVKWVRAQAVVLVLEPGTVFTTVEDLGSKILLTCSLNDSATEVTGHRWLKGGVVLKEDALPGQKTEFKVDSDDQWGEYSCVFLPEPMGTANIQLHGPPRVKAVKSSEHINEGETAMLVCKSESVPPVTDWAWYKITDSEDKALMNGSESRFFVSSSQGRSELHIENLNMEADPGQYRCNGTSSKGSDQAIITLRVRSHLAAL

Molecule | Kd [1] | other: immunogenicity, other: median PfRH5-specific IgG [2] | other: immunogenicity (growth inhibition by induced IgG), EC50 [3] | other: immunogenicity (antibody quality, GIA per antigen-specific IgG), EC50 [4]
PfRH5 (from UniProt Q8IFM5) | 1.5 µM |  |  | 
PfRH5 (reticulocyte-binding protein homolog 5): v3.0 (four Asn to Gln) (protein) parent chain: MIRIKKKLILTIIYIHLFILNRLSFENAIKKTKNQENNLTLLPIKSTEEEKDDIKNGKDIKKEIDNDKENIKTNNAKDHSTYIKSYLNTNVNDGLKYLFIPSHNSFIKKYSVFNQINDGMLLNEKNDVKNNEDYKNVDYKNVNFLQYHFKELSNYNIANSIDILQEKEGHLDFVIIPHYTFLDYYKHLSYNSIYHKSSTYGKCIAVDAFIKKINETYDKVKSKCNDIKNDLIATIKKLEHPYDINNKNDDSYRYDISEEIDDKSEETDDETEEVEDSIQDTDSNHTPSNKKKNDLMNRTFKKMMDEYNTKKKKLIKCIKNHENDFNKICMDMKNYGTNLFEQLSCYNNNFCNTNGIRYHYDEYIHKLILSVKSKNLNKDLSDMTNILQQSELLLTNLNKKMGSYIYIDTIKFIHKEMKHIFNRIEYHTKIINDKTKIIQDKIKLNIWRTFQKDELLKRILDMSNEYSLFITSDHLRQMLYNTFYSKEKHLNNIFHHLIYVLQMKFNDVPIKMEYFQTYKKNKPLTQ |  | increases, 535 vs 40 | increases, 8.4 vs >10 | 
PfRH5 (reticulocyte-binding protein homolog 5): v2.0 (four Thr to Ala) (protein) parent chain: MIRIKKKLILTIIYIHLFILNRLSFENAIKKTKNQENNLTLLPIKSTEEEKDDIKNGKDIKKEIDNDKENIKTNNAKDHSTYIKSYLNTNVNDGLKYLFIPSHNSFIKKYSVFNQINDGMLLNEKNDVKNNEDYKNVDYKNVNFLQYHFKELSNYNIANSIDILQEKEGHLDFVIIPHYTFLDYYKHLSYNSIYHKSSTYGKCIAVDAFIKKINETYDKVKSKCNDIKNDLIATIKKLEHPYDINNKNDDSYRYDISEEIDDKSEETDDETEEVEDSIQDTDSNHTPSNKKKNDLMNRTFKKMMDEYNTKKKKLIKCIKNHENDFNKICMDMKNYGTNLFEQLSCYNNNFCNTNGIRYHYDEYIHKLILSVKSKNLNKDLSDMTNILQQSELLLTNLNKKMGSYIYIDTIKFIHKEMKHIFNRIEYHTKIINDKTKIIQDKIKLNIWRTFQKDELLKRILDMSNEYSLFITSDHLRQMLYNTFYSKEKHLNNIFHHLIYVLQMKFNDVPIKMEYFQTYKKNKPLTQ |  | increases, 278 vs 40 | increases, 4 vs >10 | no change, median EC50 of 129 μg/mL (95% CI 80.7–186.7 μg/mL) anti-PfRH5 IgG
PfRH5 (reticulocyte-binding protein homolog 5): v4.0 (N38Q and N214Q) (protein) parent chain: MIRIKKKLILTIIYIHLFILNRLSFENAIKKTKNQENNLTLLPIKSTEEEKDDIKNGKDIKKEIDNDKENIKTNNAKDHSTYIKSYLNTNVNDGLKYLFIPSHNSFIKKYSVFNQINDGMLLNEKNDVKNNEDYKNVDYKNVNFLQYHFKELSNYNIANSIDILQEKEGHLDFVIIPHYTFLDYYKHLSYNSIYHKSSTYGKCIAVDAFIKKINETYDKVKSKCNDIKNDLIATIKKLEHPYDINNKNDDSYRYDISEEIDDKSEETDDETEEVEDSIQDTDSNHTPSNKKKNDLMNRTFKKMMDEYNTKKKKLIKCIKNHENDFNKICMDMKNYGTNLFEQLSCYNNNFCNTNGIRYHYDEYIHKLILSVKSKNLNKDLSDMTNILQQSELLLTNLNKKMGSYIYIDTIKFIHKEMKHIFNRIEYHTKIINDKTKIIQDKIKLNIWRTFQKDELLKRILDMSNEYSLFITSDHLRQMLYNTFYSKEKHLNNIFHHLIYVLQMKFNDVPIKMEYFQTYKKNKPLTQ |  | increases, 116 vs 40 | no change, >10 vs >10 | 
